Results on seven variants are retold here after FireProtDB (doi:10.1002/pro.5560070624).

The labels stand for the following.
B1: Ferrienterobactin receptor, P05825 (parent)
chain: MNKKIHSLALLVNLGIYGVAQAQEPTDTPVSHDDTIVVTAAEQNLQAPGVSTITADEIRKNPVARDVSKIIRTMPGVNLTGNSTSGQRGNNRQIDIRGMGPENTLILIDGKPVSSRNSVRQGWRGERDTRGDTSWVPPEMIERIEVLRGPAAARYGNGAAGGVVNIITKKGSGEWHGSWDAYFNAPEHKEEGATKRTNFSLTGPLGDEFSFRLYGNLDKTQADAWDINQGHQSARAGTYATTLPAGREGVINKDINGVVRWDFAPLQSLELEAGYSRQGNLYAGDTQNTNSDSYTRSKYGDETNRLYRQNYALTWNGGWDNGVTTSNWVQYEHTRNSRIPEGLAGGTEGKFNEKATQDFVDIDLDDVMLHSEVNLPIDFLVNQTLTLGTEWNQQRMKDLSSNTQALTGTNTGGAIDGVSTTDRSPYSKAEIFSLFAENNMELTDSTIVTPGLRFDHHSIVGNNWSPALNISQGLGDDFTLKMGIARAYKAPSLYQTNPNYILYSKGQGCYASAGGCYLQGNDDLKAETSINKEIGLEFKRDGWLAGVTWFRNDYRNKIEAGYVAVGQNAVGTDLYQWDNVPKAVVEGLEGSLNVPVSETVMWTNNITYMLKSENKTTGDRLSIIPEYTLNSTLSWQAREDLSMQTTFTWYGKQQPKKYNYKGQPAVGPETKEISPYSIVGLSATWDVTKNVSLTGGVDNLFDKRLWRAGNAQTTGDLAGANYIAGAGAYTYNEPGRTWYMSVNTHF

Variants of B1 are the subject of the data set. The following applies: Escherichia coli (strain K12); pH 7; 25 °C; GdnHCl; ESR; MOPS 20 mM; structure 1FEP; whole UniProt chain shown.

As for L266C, the denaturant m value came out at 3.25 kcal/mol/M and the “denaturant midpoint (higher = more stable)” value (from here on “denaturant midpoint”) worked out at 2.28 M.

S268C: the denaturant m value worked out at 4.21 kcal/mol/M and the “denaturant midpoint” value was 1.77 M.

On to Q278C, for which the denaturant m value amounted to 1.31 kcal/mol/M and the “denaturant midpoint” value came out at 1.91 M.

E270C: the denaturant m value turned out to be 4.08 kcal/mol/M and the “denaturant midpoint” value came out at 1.65 M.

As to E272C, the denaturant m value worked out at 5.76 kcal/mol/M and the “denaturant midpoint” value is 1.57 M.

Take S276C: the denaturant m value was found to be 4.61 kcal/mol/M and the “denaturant midpoint” value stood at 1.29 M.

On to G274C, for which the denaturant m value amounted to 5.28 kcal/mol/M and the “denaturant midpoint” value turned out to be 1.5 M.
